Laboratory results reported in US20060051295A1, “Estrogen receptor interaction with a transcription factor” (priority 2002, published 2006).

What was measured:
ERα [1] = biological target: T1, ERα (Homo sapiens, UniProt P03372); test: Transrepression of IL-1β induced NF-κB responsive promoter-reporters, U-2 OS transiently transfected with ERα; type: cell-based; design: expressed in transfected cells; details: ER alpha transfected, IL-1 induced
T1 sequence (P03372 1-595): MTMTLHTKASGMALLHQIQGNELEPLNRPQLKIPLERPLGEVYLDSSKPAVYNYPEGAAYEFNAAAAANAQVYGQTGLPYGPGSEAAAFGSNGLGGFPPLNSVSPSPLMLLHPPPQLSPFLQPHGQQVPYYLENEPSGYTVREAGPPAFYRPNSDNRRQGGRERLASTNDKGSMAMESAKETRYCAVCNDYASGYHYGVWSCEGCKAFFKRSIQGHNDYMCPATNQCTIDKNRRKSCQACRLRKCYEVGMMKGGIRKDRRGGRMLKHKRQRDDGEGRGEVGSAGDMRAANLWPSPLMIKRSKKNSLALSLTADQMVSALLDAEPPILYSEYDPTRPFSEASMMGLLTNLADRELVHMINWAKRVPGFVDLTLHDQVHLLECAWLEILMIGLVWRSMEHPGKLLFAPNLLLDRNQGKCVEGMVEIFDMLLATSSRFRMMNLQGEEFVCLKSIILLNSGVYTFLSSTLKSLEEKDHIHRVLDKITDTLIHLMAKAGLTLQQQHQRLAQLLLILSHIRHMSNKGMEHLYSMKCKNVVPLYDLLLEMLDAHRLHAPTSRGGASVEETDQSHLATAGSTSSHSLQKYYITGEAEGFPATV
Description: pKCRE-ERα, pKCRE-ERβ and pNGV1-GR contain the human wild-type estrogen receptor α (ERα), ERβ or GR respectively under control of the SV40 promoter. The pCMV4-c-Rel expression vector was produced by cloning of the coding region of c-Rel into the pCMV4 vector (Andersson et al., 1989). pGL3-ELAM, pGL3-VCAM and pGL3-ICAM have been constructed based on PCR using the sequences as outlined in appendix 1. The luciferase reporter plasmid 3*NF-κB-TK was constructed by inserting three repeats of the NF-κB binding site from the ICAM promoter (van de Stolpe et al.; J. Biol Chem. 269: 6185-6192. 1994) in front of the herpes simplex virus thymidine kinase (HSV-TK) promoter. The TK promoter was cloned into the Bgl II-site of pGL3-basic (Promega). The triple repeat of NF-κB binding sites was constructed by annealing the oligonucleotide primers 5′-[…]-3′ and 5′-[…]-3′ followed by PRC amplification and subcloning in the pCR™2.1 vector. The insert was excised using HindIII, blunted with Klenow DNA polymerase and ligated into the SmaI site of pGL3-tk-luc. 4xERE-TATA Luc (plasmid nr. 460) contains four repeats of an estrogen responsive element followed by a TATA box and a luciferase gene. The pSV-β-Galactosidase (pSVβ) control vector (Promega) served as a positive control vector for monitoring transfection efficiencies of mammalian cells. The SV40 early promoter and enhancer drive transcription of the LacZ gene which encodes the β-Galactosidase enzyme. The yeast 2-hybrid constructs pGAD424-ERα, pGAD424-ERαdAB and pGAD424-ERβ were constructed by cloning respectively the human ERα, the ERα without the AB domain and the human ERβ cDNA in pGAD424. pGAD424-ERα LBD was constructed by cloning the LBD of ERα, obtained by PCR, in the EcoRI and SalI sites of pGAD424 vector. pGBT9-c-Rel was constructed by cloning the c-Rel fragment, obtained by PCR on pCMV4-c-Rel in the EcoRI and BamHI sites of pGBT9. The p65/RelA cDNA was obtained by PCR on the pCMV4-p65.
For transient transfections, cells were seeded in 6-well plates (2.10^5 cells/well). After two or three days the cells were transfected with reporter, expression vectors and β-galactosidase control vector. Two different experimental settings were used. For testing transrepression of IL-1β induced promoter activity, cells were transfected with 1 μg reporter construct, 1 μg expression vector (containing either ERα, ERβ or GR), and 0.25 μg of β-galactosidase control plasmid.

ERα [2] = biological target: T1, ERα; test: NF-κB-responsive reporters in ECV304-ERα cells, IL-1 induced; type: cell-based; design: expressed in transfected cells; details: ECV304-ERα cells (A)
Description: This example describes an assay, based on the E-selectin or VCAM promoter in combination with ERα in the T24/ECV cell line. Note that for the ER/NF-κB transrepression assay the ECV304 cell line was used, which was believed to be the only endothelial cell line available that was suitable for producing stable ERα expressing clones. At a later stage ATCC reported that the ECV304 cells were no endothelial cells but, instead, were T24 bladder carcinoma cells. In order to enhance the cytokine induction and amount of repression by estrogens, multiple copies of NF-κB responsive regions of the E-Selectin and VCAM promoters were used to construct new reporters named ELAM1a, ELAM2, ELAM-HMG, VCAM1-2, VCAM2, and VCAM3 (for reporter details see appendix 1).
ECV304-ERα cells stably express ERα and endogenous c-Rel, whereas COS cells were transiently transfected with ERα, and, where indicated, c-Rel. Both cell types were co-transfected with the indicated E-selectin (ELAM) or VCAM promoter derived reporters.
Human osteosarcoma U-2 OS (HTB-96), monkey kidney COS-1 (CRL-1650) and human ECV304 (CRL-1998) cells have been obtained from ATCC (American Type Culture collection). ECV304 cells were sold by ATCC as human endothelial cells, however at a later stage ATCC informed us that this cell line was in fact the human bladder epithelial carcinoma cell line T24. Therefore, these cells are called T24/ECV in this report. ECV304/T24(-ERα), U-2 OS and COS-7 cells were grown in a 1:1 mixture of phenol red free Dulbecco's modified medium (DMEM) and Ham's F12 medium (=M505), supplemented with 10% fetal calf serum (FCS). Experiments were performed in M505+10% FCTS (fetal calf serum treated with dextran-coated charcoal to deplete serum from steroid activity).
The six NF-κB responsive reporters pHGL3-ELAM 1a, pHGL3-ELAM 2, pHGL3-ELAM HMG, pHGL3-VCAM 1-2, pHGL3-VCAM 2 and pHGL3-VCAM 3 (plasmid nr. 1921-1926 respectively) were constructed by ligating annealed primers in the Kpn I and Sac I sites of pHGL3-TATA. The primers were based on the NF-κB-RE sequences in the ELAM and the VCAM promoter (see Appendix 1). Several copies of the NF-κB-RE's were cloned in order the gain a higher absolute luciferase signal. The ELAM HMG construct contains a double repeat, while the other constructs contain three NF-κB -RE's. For primer and reporter sequences, see appendix 1.
For transient transfections, cells were seeded in 6-well plates (2.10^5 cells/well). After two or three days the cells were transfected with reporter, expression vectors and β-galactosidase control vector. Two different experimental settings were used. For testing transrepression of IL-1β induced promoter activity, cells were transfected with 1 μg reporter construct, 1 μg expression vector (containing either ERα, ERβ or GR), and 0.25 μg of β-galactosidase control plasmid. For testing transrepression in combination with c-Rel or ReLA overexpression, cells were transfected with 1 μg reporter construct, 1 μg expression vector (containing either ERα, ERβ or GR) and 0.1 or 1.0 μg expression vector containing c-Rel or RelA and 0.25 μg of β-galactosidase control vector. Equivalent amounts of DNA were obtained by adding the appropriate expression vector that lacks an insert. Transient transfection was performed using lipofectin reagent (Life Technologies). […] The transfected cells were incubated overnight with test compounds prior to cell lysis. Measurement of luciferase and P-galactosidase activity were performed using respectively the luciferase assay system (Promega) and Galacto-light plus (Tropix) according to the manufacturers' protocols and measured on the Victor 1420 multilabel counter, Wallac.

ERα [3] = biological target: T1, ERα; test: Stably transfected ECV304/T24-ERα-ELAM-HMG and -VCAM3 clones, luciferase activity; details: stable ECV304/T24-ERα clone, IL1 induced

IL-1: cytokine used to induce NF-κB responsive reporter activity
luciferase activity, 3*NFkB-reporter (ERα [1]): 1836839 | luciferase activity, ELAM+ reporter (ERα [1]): 99757 | luciferase activity, ICAM reporter (ERα [1]): 908172 | luciferase activity, VCAM reporter (ERα [1]): 30296 | luciferase activity, ELAM1a reporter (ERα [2]): 1818 cps | luciferase activity, ELAM2 reporter (ERα [2]): 39383 cps | luciferase activity, ELAM− reporter (ERα [2]): 160167 cps | luciferase activity, VCAM1-2 reporter (ERα [2]): 3741 cps | luciferase activity, VCAM2 reporter (ERα [2]): 19464 cps | luciferase activity, VCAM3 reporter (ERα [2]): 22767 cps | luciferase activity, VCAM reporter (ERα [2]): 3099 cps | luciferase activity, ELAM-HMG clone 2B8 (ERα [3]): 8410 | luciferase activity, ELAM-HMG clone 2F4 (ERα [3]): 1566 | luciferase activity, VCAM3 clone 3A10 (ERα [3]): 3907 | luciferase activity, VCAM3 clone 4B6 (ERα [3]): 2122
